# In the nanobody polyreactivity screen of Harvey et al. (2022):
# Experiment: yeast display, Sf9 membrane polyspecificity reagent, FACS + sequencing; frameworks hold sequencing errors
# Outline: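 Nanobodies came from a synthetic yeast display library in Saccharomyces cerevisiae BJ5465, induced with galactose for 36–48 hours and stained for 1 hour at 4 °C with 10% biotinylated, detergent-solubilized Sf9 membrane reagent. Cells were enriched on streptavidin microbeads and then FACS-sorted, with low and high (top ~1%) gates set on anti-HA fluorescence for expression and streptavidin fluorescence for reagent binding. Each polyreactivity label reflects the gate a clone came from. Genes were amplified by colony PCR, sequenced by MiSeq 2 × 250 and filtered by CDR length.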
sequence,measurement,value
QVQLVESGGGLVQAGGSLRLSCAASGSTFVYYAMGWYRQAPGKERELVAASTYADSVKGRFTISRDNAKNTVYLQMNSLKPEDTAVYYCAADFVSAYFTIYDYWGQGTQVTVSS,polyreactivity (PSR sort gate),low polyreactivity
QVQLVESGGGLVQAGGSLRLSCAASGSTFVYYAMGWYRQAPGKERELVAVISDDGGTYYADSVKGRFTISRDNAKNTVYLQMNSLKPEDTAVYYCAADPYWFFPHYDSWGQGTQVTVSS,polyreactivity (PSR sort gate),low polyreactivity
QVQLVESGGGLVQAGGSLRLSCAASGSTFVYYAMVWYRQAPGKERELVAAITGSVDSTYYADSVKGRFTISRDNAKNTVYLQMNSVKPEDTAVYYCAADTYSTYWGQGTQVTVSS,polyreactivity (PSR sort gate),low polyreactivity
QVQLVESGGGLVQAGGSLRLSCAASGSTFVYYDMGWFRQAPGKERELVASISWSGGSTRYADSVKGRFTISRDNAKNTVYLQMNSLKPEDTAVYYCNKSNPDYDGLAIHAFDYWGQGTQVTVSS,polyreactivity (PSR sort gate),low polyreactivity
QVQLVESGGGLVQAGGSLRLSCAASGSTFVYYDMGWYRQAPGKERELVAAITGSVDSTYYADSVKGRFTISRDNAKNTVYLQMNSLKPEDTAVYYCAADTYSTYWGQGTQVTVSS,polyreactivity (PSR sort gate),low polyreactivity
QVQLVESGGGLVQAGGSLRLSCAASGSTFVYYDMGWYRQAPGQERELVATINGSGSRTNYADSVKGRFTISRDYAKNTVYLQMNSLKPEDTAVYYCAADYISYLVAGGYEDDYWGQVTQVTVSS,polyreactivity (PSR sort gate),low polyreactivity
QVQLVESGGGLVQAGGSLRLSCAASGSTFVYYTMGWYRQAPGKERELVAAINNGGSTYYADSVKGRFTISRDNAKNTVYLQMNSLKPEDTAFYYCARFTSRVSKYYWGQGSQVTVSS,polyreactivity (PSR sort gate),low polyreactivity
QVQLVESGGGLVQAGGSLRLSCAASGSTFVYYVMGWYRQAPGKERELVAAISWSDDSTYYADSVKGRFTISRDNAKNTVYLQMNSLKAEDTAVYYCAATGYPFYTSGDIEYYYWGQGTQVTVSS,polyreactivity (PSR sort gate),low polyreactivity
QVQLVESGGGLVQAGGSLRLSCAASGSTFWAYAMGWYRQAPGKERELVATITWSVGGTYYADSVKGRFTISRDNAKNTVYLQMNSLKPEDTAVYYCATDAYVKGVYEISEDRVDYWGQGTQVTVSS,polyreactivity (PSR sort gate),low polyreactivity
QVQLVESGGGLVQAGGSLRLSCAASGSTFWEYAMGWYRQAPGKERELVAAITWSTGSTYYADSVKGRFTISRDNAKNTVYLQMNSLKPEDTAVYYCNVDWGYFYTTQGFDYWGQGTQVTVSS,polyreactivity (PSR sort gate),high polyreactivity
QVQLVESGGGLVQAGGSLRLSCAASGSTFWFYAMGWYRQAPGKERELVAVISNSGSTYYADSVKGRFTISRDNAKNTVYLQMNSLKPEDTAVYYCNKDGGGDSYWYDYWGQATQVTVSS,polyreactivity (PSR sort gate),low polyreactivity
QVQLVESGGGLVQAGGSLRLSCAASGSTFWGNAMGWYRQAPGKERELVATITDGGSTNYADSVKGRFTISRDNAKNTVYLQMNSLKPEDTAVYYCNAEEHYNTYVLHFRPYYVRHDYWGQGTQVTVSS,polyreactivity (PSR sort gate),low polyreactivity
QVQLVESGGGLVQAGGSLRLSCAASGSTFWGYTMGWYRPAPGKERELVAAITGSGGSTNYADSVKGRFTISRDNAKNTVNLQMNSLKPEDTAVYYCAADVFTARRRYDYWGQGTQVTVSS,polyreactivity (PSR sort gate),low polyreactivity
QVQLVESGGGLVQAGGSLRLSCAASGSTFWIYTMGWYRQAPGKERELVAAITWSGGRTYYADSVKGRFTISRDNAKNTVYLQMNSLKPEDTAVYYCNADVYSYRPSTIQRYVLFDYWGQGTQVTVSS,polyreactivity (PSR sort gate),low polyreactivity
QVQLVESGGGLVQAGGSLRLSCAASGSTFWKYAMGWYRQAPGKERELVASIRSGGSTYYADSVKGRFTISRDNAKNTVYLQMNSLKPEDTAVYYCAAKSISVGGGVYGYRYYYWGQGTQVTVSS,polyreactivity (PSR sort gate),high polyreactivity
QVQLVESGGGLVQAGGSLRLSCAASGSTFWKYIMGWYRQAPGKERELVAAITTRGGSTYADSVKGRFTISRDNAKNTVYLQMNSLKPEDTAVYYWAATKFWYYGYDYWGQGTQVTVSS,polyreactivity (PSR sort gate),low polyreactivity
QVQLVESGGGLVQAGGSLRLSCAASGSTFWPYAMGWSRQAPGKERELVARINSGGNTNYADSVKGRFTISRDNAKNTVYLQMNSLKPEDTAVYYCAVRSLYEPRVYYRWVVVDGNYLGQGTQVTVSS,polyreactivity (PSR sort gate),low polyreactivity
QVQLVESGGGLVQAGGSLRLSCAASGSTFWPYAMGWYRQAPGKERELVAAINYSSGSTYYADSVKGRFTISRDNAKNTVYLQMNSLKPEDNAVYYCAKGWYAGYPYDYWGQGTQVTVSS,polyreactivity (PSR sort gate),low polyreactivity
QVQLVESGGGLVQAGGSLRLSCAASGSTFWPYAMGWYRQAPGKERELVAAITSSGGSTYYADSVKGRFTISRDNAKNTVYLQRNSLKPEDTAVYYCAADWSNLGAYDYWGQGTQVTVSS,polyreactivity (PSR sort gate),low polyreactivity
QVQLVESGGGLVQAGGSLRLSCAASGSTFWSNTMGWYRQAPGKERELVASITTSGGRTYYADSVKGRFTISRDNAKNTVYLQMNSLKPEDTAVYYCAAGGRVRRRYGYWGQGTQVTVSS,polyreactivity (PSR sort gate),high polyreactivity
QVQLVESGGGLVQAGGSLRLSCAASGSTFWSYAMGWSRQAPGKERELVAAITDSGGSTYYADSVKGRFTISRDNAKNTVYLQLNSLKPEDTAVYYCAVDSRYTAPLRPLGPFDYWGQGTQVTVSS,polyreactivity (PSR sort gate),low polyreactivity
QVQLVESGGGLVQAGGSLRLSCAASGSTFWSYAMGWYRQATGKERELVAAITSGGRTYYADSVKGRFTISRDNAKNTVYLQMNCLKAEDTAVYYCAAEGSVGLYGMIMHYWGQGTQVTVSS,polyreactivity (PSR sort gate),high polyreactivity
QVQLVESGGGLVQAGGSLRLSCAASGSTFWTNAMAWYRQSPGKERELVATITYSTGTYADSVKGRFTISRDNAKNTVYLQMNSLKPEDTAVYYCAAEVVAQMNYWGQGTQVTVSS,polyreactivity (PSR sort gate),low polyreactivity
QVQLVESGGGLVQAGGSLRLSCAASGSTFWTNAMGWYRQAPGKERELVAVISRGGSTNYADSVKGRFTISRDNAKNTVYLQMNSLKPEDTAVYYCAAASYLYGRYYYWGQGTQVTVSS,polyreactivity (PSR sort gate),high polyreactivity
QVQLVESGGGLVQAGGSLRLSCAASGSTFWVNVMGWYRQAPGKERELVATITSGGRTNYADSVKGRFTISRDNAKNTVYLQMNSLKPADTAVYDCAADLKRGDLMDYWGQGTQVTVSS,polyreactivity (PSR sort gate),low polyreactivity
QVQLVESGGGLVQAGGSLRLSCAASGSTFWVYAMGWYRQAPGKERELVATISRGGSTNYADSVKGRFTISRDNAKNTVYLQMNSLKPEDTAVYYCAAPRFYGYGYEYWGQGTQVTVSS,polyreactivity (PSR sort gate),low polyreactivity
QVQLVESGGGLVQAGGSLRLSCAASGSTFWVYTMGWYRQAPGKERELVAAISYGGGRTYYADSVKGRFTISRDNEKNTVYLQMNSLKPEDTAVYYCNKDYWRDVAQDVLDGYEYWGQGTQVTVSS,polyreactivity (PSR sort gate),low polyreactivity
QVQLVESGGGLVQAGGSLRLSCAASGSTFWVYTMGWYRQAPGKERELVAAITLNGGSTYYADSVKGRFTISRDNAKNTVYLQMNSLKPEDTAVYYCAAYVFPFDKSYHYVGYDYWGQGTQVTVSS,polyreactivity (PSR sort gate),low polyreactivity
QVQLVESGGGLVQAGGSLRLSCAASGSTFWWYAMGWYRQAPGKDRELVAASSYSGSSTYYADSVKGRFTISRDNAKNTVYLQMNSLKPEDTAVYYCAADIQYYYNYYPGDYWGQGTQVTVSS,polyreactivity (PSR sort gate),low polyreactivity
QVQLVESGGGLVQAGGSLRLSCAASGSTFWWYAMGWYRQAPGKEREFVAAINWRGSSTYYADSVKGRFTISRDNAKNTVYLQMNSLKPEDTSVYYCNAVLRYGYAGMDYWGQGTQVTVSS,polyreactivity (PSR sort gate),high polyreactivity
QVQLVESGGGLVQAGGSLRLSCAASGSTFWYNAMGWYRQAPGKEREFVASISFRSGRTYYADSVKGRFTISRDNAKNTVYLQMNSLKPEDTAVYYCAADYYQYKYDYWGQGTQVTVSS,polyreactivity (PSR sort gate),high polyreactivity
QVQLVESGGGLVQAGGSLRLSCAASGSTFWYNAMGWYRQAPGKERELVASITLSGARTYYADSVKGRFTISRDNAKNTVYLQMNSLKPEDTAVYYCAKRTGRVKYYYWGQGTQVTVSS,polyreactivity (PSR sort gate),high polyreactivity
QVQLVESGGGLVQAGGSLRLSCAASGSTFWYNAMGWYRQAPGTERELVATITNSGGSTYYADSVKGRFTISRDNAKNTVYLQMNSLKPEDTAVYYCATDVYSGALLKYDYWGQGTQVTVSS,polyreactivity (PSR sort gate),low polyreactivity
QVQLVESGGGLVQAGGSLRLSCAASGSTFWYYAMAWYRHAPGKEREMVAAINSDDSTNYADSVKGRFTISRDNAKNTDYLQMNSLKPEDTAVYDCHRGFVYSTTGLWRYYDFDYWGQGTQVTLSS,polyreactivity (PSR sort gate),low polyreactivity
QVQLVESGGGLVQAGGSLRLSCAASGSTFWYYAMGWYRQAPGKEREFVAAITTSAGRTYYADSVKGRFTISRDNAKNSVYLQMNSLKPEDTAVYYCAAEPRQYWEYNYWGQGTQVTVSS,polyreactivity (PSR sort gate),high polyreactivity
QVQLVESGGGLVQAGGSLRLSCAASGSTFWYYAMGWYRQAPGKERELVAAISRSTGSTYYADSVKGRFTISRDNAKNTVYLQMNSLKPEDTAVYYCNKDPVPSFFIPEIGYSEYDYWGQGTQVTVSS,polyreactivity (PSR sort gate),low polyreactivity
QVQLVESGGGLVQAGGSLRLSCAASGSTFWYYAMGWYRQAPGKERQLVAAISRNGVSTYYADSVKGRFTISRDIAKNTVYLQMNSMKPEDTAVYYCNVVTKFTGRGYDYWGQGTQVTVSS,polyreactivity (PSR sort gate),high polyreactivity
QVQLVESGGGLVQAGGSLRLSCAASGSTFWYYTMGWYRQAPGKERELVAAITESGGGTYYADSVKGRFTISRDNAKNTVYLQMNSLKPEDTAVYYCAAYSRFTSDYWGQGTQVTVSS,polyreactivity (PSR sort gate),high polyreactivity
QVQLVESGGGLVQAGGSLRLSCAASGSTFYANAMGWYRQAPGKEREFVADITISGGRTYYADSVKGRFTISRDNAKNTVYLQMNSLKPEDTAVYYWNTRGIFFQSQTHDYWGQGTQVTVSS,polyreactivity (PSR sort gate),low polyreactivity
QVQLVESGGGLVQAGGSLRLSCAASGSTFYANAMGWYRQAPGKERELVAAIDSGGTTTYADSVKGRFTISRDNAKNTVYLQMNSLKPEDTAVYYCAADQYWYIWYDYWGQGTQVTVSS,polyreactivity (PSR sort gate),low polyreactivity
QVQLVESGGGLVQAGGSLRLSCAASGSTFYAYTMGWYRQAPGKERELVAAITSSGSNTYYADSVKGRFTISRDNAKNTVYLQMNSLKPEDTAVYYCAARITREGYYWGQGTQVTVSS,polyreactivity (PSR sort gate),high polyreactivity
QVQLVESGGGLVQAGGSLRLSCAASGSTFYDSAMGWYRQAPGKERELVAAINWSSDTTYYADSVKGRFTISRDNAKNTVYLQMNSLKPEDTAVYYCATDSAYRGYDYWGQGTQVNVSS,polyreactivity (PSR sort gate),low polyreactivity
QVQLVESGGGLVQAGGSLRLSCAASGSTFYDYVMGWYRQAPGKERELVAAITGSGGRTYYADSVKGRFTISRDNAKNTVYLQMNSLKPEDTAVYYCAVRVHYNRVYGRYSPRYDYWGQGTQVTVSS,polyreactivity (PSR sort gate),high polyreactivity
